Measured values published in patent US20140363441A1 (priority 2013, published 2014).

Molecular target: M2 protein of influenza A/Puerto Rico/8/34 (H1N1) on the surface of infected MDCK cells or transfected cells (influenza A virus H1N1 A/Puerto Rico/8/34) (UniProt P06821)
Experiment: flow cytometry, PR8-infected MDCK cells

UniProt P06821, sequence (P06821 whole entry): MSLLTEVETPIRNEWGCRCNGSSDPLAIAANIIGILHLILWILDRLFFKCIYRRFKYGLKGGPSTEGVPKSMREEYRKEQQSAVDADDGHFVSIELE

“chimeric mouse V-region/human IgG1 kappa 14C2 antibody” showed an EC50 (read off the curve) of 0.3 µg/mL.
